Assay results taken from patent publication US20090275105A1, “PROCESS FOR THE PRODUCTION OF BROMELAIN BY MEANS OF SUBSTANCES THAT INDUCE PROTEINS IN PINEAPPLE PLANTS” (priority 2006, published 2009).
Each block holds one compound with its values, some of them ahead of it.

Experiments:
[1] = Comparison of the specific activity of bromelain obtained from different methods; format: biochemical, Ananas comosus; settings: 30 mg/ml protein sample; inducers: 15 days from induction
Description: The plantlets grown in vitro in different culture mediums indicated in this invention were taken and rinsed in running water to remove the Induction SS medium. 330 g of plants were weighed, placed in an extractor to be ground and 200 ml of juice was obtained (first extraction) that was stored at a temperature of 4° C. 670 ml of extraction buffer (monobasic potassium phosphate and dibasic potassium phosphate) is added to the pulp obtained from the extraction at a pH of 6.1 and a concentration of 0.05M; this is allowed to repose for 20 minutes in order to afterwards collect the enzyme and pass it through an extractor and thus obtain the second juice. The following step is to mix and homogenize the juice from the first extraction with the second extraction for 1 minute at 2000 rpm and to then centrifuge at 10000 rpm for 20 min. at 4° C., to afterwards recover the supernatant with a volume of approximately 800 ml which is frozen at −80° C. and lyophilized (10% of solids) for its preservation. The extraction procedure is applied for all the treatments of which the amount of protein present is determined (Bradford) expressing the protein per ml of extract in mg. A standard curve is used for the protein tests. The standard used was bovine serum albumin at 0.20-1.0 mg/ml. Based on the results, the following specific activities were obtained compared with imported commercial bromelain and bromelain induced from in vitro plants.

[2] = system: pineapple plants (Ananas comosus); assay: Specific enzyme activity of raw extract from pineapple plantlets induced in vitro (Dapeau method); format: in vivo; settings: sacarose 30-90 g/L as inducer
Description: In order to perform the evaluation of the inducers, a factor design was carried out of 3×3×3 with three inducers at three different concentrations and three monitoring times (Chart 4), for each treatment The evaluations are carried out using the inducers separately or in combination giving a total of […]. […] The induction was begun with the selection of the sprouts previously established in vitro with a size of 2 cm and an average of 3 leaves and weighing 120 mg. […] Once the inducers are added to the modified SS, it is sterilized at 121° C., at a pressure of 1.2 kg/cm^2 for 20 minutes. In the treatments that contain salicylic acid, the modified SS medium is first sterilized and later the acid is added, which was sterilized through filtration, under aseptic conditions in a laminar flow hood. Here it is advisable to add the acid to the medium before it is cooled to achieve the homogenization of the inducer with the medium before it is solidified. The sprouts are planted under aseptic conditions in 460 ml flasks that contain 30 ml of the Induction SS, said flasks are closed and sealed with clear tape in order to avoid any filtering of air and with the air, contamination of same. The treatments are moved to a growth room under controlled conditions at 27±2° C. and a photoperiod of 16 hr/light and 8 hr/darkness for a period of 7, 15, 30 and 45 days. […]

[3] = fractioning with ammonium sulfate; cited from earlier work
[4] = cited from earlier work
[5] = bromelain obtained from stems; cited from earlier work

Compound: [Cl-].[Na+] [NaCl, sodium chloride]
Specific activity (U/mg^−1 protein) [1]: 4.98 U/mg^−1 protein

Compound: O=C(O)c1ccccc1O [Salicylic acid]
Specific activity (U/mg^−1 protein) [1]: 3.17 U/mg^−1 protein

specific activity in induction tests, comparison of inducers [2]: greater specific activity
Compound: OC[C@H]1O[C@@](CO)(O[C@H]2O[C@H](CO)[C@@H](O)[C@H](O)[C@H]2O)[C@@H](O)[C@@H]1O [Sacarose]
Specific activity (U/mg^−1 protein) [1]: 635 U/mg^−1 protein

Compound: Bromelain
proteolytic activity [3]: 1.64 U/mg^−1
Stability in solutions of 25% methanol (v/v) ([4]; 25° C. for 20 min): stable
loss of activity when the enzymatic solution is heated ([4]; 55° C. for 20 min at pH 6): 50%
Optimal pH ([4]; Inagami and Murachi, 1963): approximately 7
loss in activity caused by lyophilization ([4]; Murachi et al., 1964): 27%
Isoelectric Point p1 [5]: 9.55
